Data from patent US20250186594A1.

Assays:
[1] = target: Fc fused human IL-18BP isoform a (IL-18BPa) (human) (UniProt O95998); assay: SPR, Fc-IL-18BPa captured, 1:1 fit
[2] = target: His-tagged human IL-18BP (human) (UniProt O95998); assay: AlphaLISA of free IL-18BP
[3] = target: His-tagged human IL-18BP (human) (UniProt O95998); assay: AlphaLISA of free IL-18BP (signal at 615 nm) after incubation of His-tagged human IL-18BP with a dilution series of the IL-18 polypeptide

Sequence of Native IL-18 wild-type (SEQ ID NO: 1, native sequence) (Q14116 37-193): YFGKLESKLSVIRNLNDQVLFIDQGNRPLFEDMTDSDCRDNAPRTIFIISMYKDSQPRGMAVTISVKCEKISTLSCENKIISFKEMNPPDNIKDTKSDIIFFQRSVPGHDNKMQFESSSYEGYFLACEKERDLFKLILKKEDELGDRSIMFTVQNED
Sequence of Fc fused human IL-18BP isoform a (IL-18BPa) (human) (O95998 31-194): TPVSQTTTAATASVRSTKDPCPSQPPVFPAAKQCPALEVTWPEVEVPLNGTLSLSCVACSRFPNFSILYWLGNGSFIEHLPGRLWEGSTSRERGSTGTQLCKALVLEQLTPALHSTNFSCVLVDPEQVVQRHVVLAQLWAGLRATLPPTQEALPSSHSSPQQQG

Substance | Kd [1] | koff [1] | kon [1] | Kd [2] | IC50 (read off the curve) [3]
IL-18 variant SEQ ID NO: 57 with 30 kDa PEG (E6K, C38S, K53A, C68-30kDPEG) (from UniProt Q14116 37-193) (ligand) | 23 nM | 0.00397 s⁻¹ | 177000 M⁻¹ s⁻¹ | 42.5 nM | –
IL-18 variant SEQ ID NO: 59 with 30 kDa PEG (E6K, C38A, K53A, C68-30kDPEG) (from UniProt Q14116 37-193) (ligand) | 19.4 nM | 0.00355 s⁻¹ | 199000 M⁻¹ s⁻¹ | 75.2 nM | –
IL-18 variant SEQ ID NO: 30 (E6K, V11I, C38A, K53A, T63A, C76A, C127A) (from UniProt Q14116 37-193) (ligand) | 3.05 nM | 0.00345 s⁻¹ | 1.05e+06 M⁻¹ s⁻¹ | 24.6 nM | 8 nM
Native IL-18 wild-type (SEQ ID NO: 1, native sequence) (from UniProt Q14116 37-193) (ligand) | 0.246 nM | 0.00038 s⁻¹ | 1.28e+06 M⁻¹ s⁻¹ | 0.411 nM | 0.6 nM
IL-18 variant SEQ ID NO: 60 with 30 kDa PEG (E6K, C38Q, K53A, C68-30kPEG) (from UniProt Q14116 37-193) (ligand) | 22 nM | 0.00395 s⁻¹ | 193000 M⁻¹ s⁻¹ | 63.7 nM | –
IL-18 variant SEQ ID NO: 63 (E6K, C38A, K53A, C76A, C127A) (from UniProt Q14116 37-193) (ligand) | 1.5 nM | 0.00424 s⁻¹ | 2.82e+06 M⁻¹ s⁻¹ | 20.3 nM | –
IL-18 variant SEQ ID NO: 30 with 30 kDa PEG (E6K, V11I, C38A, K53A, T63A, C76A, C127A, C68-30kPEG) (from UniProt Q14116 37-193) (ligand) | 45.1 nM | 0.00451 s⁻¹ | 106000 M⁻¹ s⁻¹ | 26.3 nM | –
IL-18 variant SEQ ID NO: 30 with 10 kDa PEG (E6K, V11I, C38A, K53A, T63A, C76A, C127A, C68-10kPEG) (from UniProt Q14116 37-193) (ligand) | 6.83 nM | 0.0036 s⁻¹ | 527000 M⁻¹ s⁻¹ | 15.7 nM | –
IL-18 variant SEQ ID NO: 62 with 30 kDa PEG (E6K, C38A, K53A, C127A, C68-30kPEG) (from UniProt Q14116 37-193) (ligand) | 24 nM | 0.00342 s⁻¹ | 142000 M⁻¹ s⁻¹ | 29.3 nM | –
